In patent US20130164281A1 (SAMSUNG ELECTRONICS, published 2013) one finds Kd and IC50 data, which are given here for 21 molecules.

B1: chimeric antibody chAbF46 (antibody, V domains shown)
VH: EVKLVESGGGLVQPGGSLRLSCATSGFTFTDYYMSWVRQPPGKALEWLGFIRNKANGYTTEYSASVKGRFTISRDNSQSILYLQMDTLRAEDSATYYCARDNWFAYWGQGTLVTVSA
VL: DILMTQSPSSLTVSAGEKVTMSCKSSQSLLASGNQNNYLAWHQQKPGRSPKMLIIWASTRVSGVPDRFIGSGSGTDFTLTINSVQAEDLAVYYCQQSYSAPLTFGAGTKLELKR
B2: deimmunized humanized antibody huAbF46 including a combination of AT-VH3 and AT-Vk2 (antibody, IgG1, V domains shown)
VH: B1 VH with K3Q, A44G, Q78K, I80T, D86N, T87S, S93T, A117S
VL: DILMTQSPSSLSASVGDRVTITCKSSQSLLASGNQNNYLAWHQQKPGKAPKMLIIWASTRVSGVPDRFIGSGSGTDFTLTISSLQAEDVAVYYCQQSYSAPLTFGQGTKLEIK
notes: expressed from pANTVhG1 and pANTVk vectors (IgG1, kappa) in HEK293 cells; also called AT-VH3/AT-Vk2
B3: deimmunized humanized antibody huAbF46 including a combination of AT-VH2 and AT-Vk2 (antibody, IgG1, V domains shown)
VH: B1 VH with A44G, Q78K, I80T, D86N, T87S, S93T, A117S
VL: B2 VL
notes: expressed from pANTVhG1 and pANTVk vectors (IgG1, kappa) in HEK293 cells; also called AT-VH2/AT-Vk2
B4: deimmunized humanized antibody huAbF46 including a combination of AT-VH3 and AT-Vk3 (antibody, IgG1, V domains shown)
VH: B1 VH with K3Q, A44G, Q78K, I80T, D86N, T87S, S93T, A117S
VL: B2 VL with L3Q
notes: expressed from pANTVhG1 and pANTVk vectors (IgG1, kappa) in HEK293 cells; also called AT-VH3/AT-Vk3
B5: deimmunized humanized antibody huAbF46 including a combination of AT-VH3 and AT-Vk1 (antibody, IgG1, V domains shown)
VH: B1 VH with K3Q, A44G, Q78K, I80T, D86N, T87S, S93T, A117S
VL: B2 VL with S12T, I21M
notes: expressed from pANTVhG1 and pANTVk vectors (IgG1, kappa) in HEK293 cells; also called AT-VH3/AT-Vk1
B6: deimmunized humanized antibody huAbF46 including a combination of AT-VH4 and AT-Vk2 (antibody, IgG1, V domains shown)
VH: B1 VH with K3Q, A44G, Q78K, S79N, I80T, D86N, T87S, S93T, A117S
VL: B2 VL
notes: expressed from pANTVhG1 and pANTVk vectors (IgG1, kappa) in HEK293 cells; also called AT-VH4/AT-Vk2
B7: deimmunized humanized antibody huAbF46 including a combination of AT-VH1 and AT-Vk1 (antibody, IgG1, V domains shown)
VH: B1 VH with A44G, Q78K, I80T, D86N, T87S, A117S
VL: B2 VL with S12T, I21M
notes: expressed from pANTVhG1 and pANTVk vectors (IgG1, kappa) in HEK293 cells; also called AT-VH1/AT-Vk1
B8: deimmunized humanized antibody huAbF46 including a combination of AT-VH4 and AT-Vk1 (antibody, IgG1, V domains shown)
VH: B1 VH with K3Q, A44G, Q78K, S79N, I80T, D86N, T87S, S93T, A117S
VL: B2 VL with S12T, I21M
notes: expressed from pANTVhG1 and pANTVk vectors (IgG1, kappa) in HEK293 cells; also called AT-VH4/AT-Vk1
B9: deimmunized humanized antibody huAbF46 including a combination of AT-VH4 and AT-Vk4 (antibody, IgG1, V domains shown)
VH: B1 VH with K3Q, A44G, Q78K, S79N, I80T, D86N, T87S, S93T, A117S
VL: B2 VL with L3Q, I69S
notes: expressed from pANTVhG1 and pANTVk vectors (IgG1, kappa) in HEK293 cells; also called AT-VH4/AT-Vk4
B10: deimmunized humanized antibody huAbF46 including a combination of AT-VH2 and AT-Vk1 (antibody, IgG1, V domains shown)
VH: B1 VH with A44G, Q78K, I80T, D86N, T87S, S93T, A117S
VL: B2 VL with S12T, I21M
notes: expressed from pANTVhG1 and pANTVk vectors (IgG1, kappa) in HEK293 cells; also called AT-VH2/AT-Vk1
B11: deimmunized humanized antibody huAbF46 including a combination of AT-VH5 and AT-Vk2 (antibody, IgG1, V domains shown)
VH: B1 VH with K3Q, A44G, Q78K, S79N, I80T, D86N, T87S, S93T, T95V, A117S
VL: B2 VL
notes: expressed from pANTVhG1 and pANTVk vectors (IgG1, kappa) in HEK293 cells; also called AT-VH5/AT-Vk2
B12: deimmunized humanized antibody huAbF46 including a combination of AT-VH1 and AT-Vk3 (antibody, IgG1, V domains shown)
VH: B1 VH with A44G, Q78K, I80T, D86N, T87S, A117S
VL: B2 VL with L3Q
notes: expressed from pANTVhG1 and pANTVk vectors (IgG1, kappa) in HEK293 cells; also called AT-VH1/AT-Vk3
B13: deimmunized humanized antibody huAbF46 including a combination of AT-VH1 and AT-Vk4 (antibody, IgG1, V domains shown)
VH: B1 VH with A44G, Q78K, I80T, D86N, T87S, A117S
VL: B2 VL with L3Q, I69S
notes: expressed from pANTVhG1 and pANTVk vectors (IgG1, kappa) in HEK293 cells; also called AT-VH1/AT-Vk4
B14: deimmunized humanized antibody huAbF46 including a combination of AT-VH2 and AT-Vk3 (antibody, IgG1, V domains shown)
VH: B1 VH with A44G, Q78K, I80T, D86N, T87S, S93T, A117S
VL: B2 VL with L3Q
notes: expressed from pANTVhG1 and pANTVk vectors (IgG1, kappa) in HEK293 cells; also called AT-VH2/AT-Vk3
B15: deimmunized humanized antibody huAbF46 including a combination of AT-VH2 and AT-Vk4 (antibody, IgG1, V domains shown)
VH: B1 VH with A44G, Q78K, I80T, D86N, T87S, S93T, A117S
VL: B2 VL with L3Q, I69S
notes: expressed from pANTVhG1 and pANTVk vectors (IgG1, kappa) in HEK293 cells; also called AT-VH2/AT-Vk4
B16: deimmunized humanized antibody huAbF46 including a combination of AT-VH5 and AT-Vk3 (antibody, IgG1, V domains shown)
VH: B1 VH with K3Q, A44G, Q78K, S79N, I80T, D86N, T87S, S93T, T95V, A117S
VL: B2 VL with L3Q
notes: expressed from pANTVhG1 and pANTVk vectors (IgG1, kappa) in HEK293 cells; also called AT-VH5/AT-Vk3
B17: deimmunized humanized antibody huAbF46 including a combination of AT-VH3 and AT-Vk4 (antibody, IgG1, V domains shown)
VH: B1 VH with K3Q, A44G, Q78K, I80T, D86N, T87S, S93T, A117S
VL: B2 VL with L3Q, I69S
notes: expressed from pANTVhG1 and pANTVk vectors (IgG1, kappa) in HEK293 cells; also called AT-VH3/AT-Vk4
B18: deimmunized humanized antibody huAbF46 including a combination of AT-VH5 and AT-Vk1 (antibody, IgG1, V domains shown)
VH: B1 VH with K3Q, A44G, Q78K, S79N, I80T, D86N, T87S, S93T, T95V, A117S
VL: B2 VL with S12T, I21M
notes: expressed from pANTVhG1 and pANTVk vectors (IgG1, kappa) in HEK293 cells; also called AT-VH5/AT-Vk1
B19: deimmunized humanized antibody huAbF46 including a combination of AT-VH1 and AT-Vk2 (antibody, IgG1, V domains shown)
VH: B1 VH with A44G, Q78K, I80T, D86N, T87S, A117S
VL: B2 VL
notes: expressed from pANTVhG1 and pANTVk vectors (IgG1, kappa) in HEK293 cells; also called AT-VH1/AT-Vk2
B20: deimmunized humanized antibody huAbF46 including a combination of AT-VH5 and AT-Vk4 (antibody, IgG1, V domains shown)
VH: B1 VH with K3Q, A44G, Q78K, S79N, I80T, D86N, T87S, S93T, T95V, A117S
VL: B2 VL with L3Q, I69S
notes: expressed from pANTVhG1 and pANTVk vectors (IgG1, kappa) in HEK293 cells; also called AT-VH5/AT-Vk4
B21: deimmunized humanized antibody huAbF46 including a combination of AT-VH4 and AT-Vk3 (antibody, IgG1, V domains shown)
VH: B1 VH with K3Q, A44G, Q78K, S79N, I80T, D86N, T87S, S93T, A117S
VL: B2 VL with L3Q
notes: expressed from pANTVhG1 and pANTVk vectors (IgG1, kappa) in HEK293 cells; also called AT-VH4/AT-Vk3

Residue numbers refer to the chain shown, from its start.

T1 sequence (P08581 25-932 limits assumed): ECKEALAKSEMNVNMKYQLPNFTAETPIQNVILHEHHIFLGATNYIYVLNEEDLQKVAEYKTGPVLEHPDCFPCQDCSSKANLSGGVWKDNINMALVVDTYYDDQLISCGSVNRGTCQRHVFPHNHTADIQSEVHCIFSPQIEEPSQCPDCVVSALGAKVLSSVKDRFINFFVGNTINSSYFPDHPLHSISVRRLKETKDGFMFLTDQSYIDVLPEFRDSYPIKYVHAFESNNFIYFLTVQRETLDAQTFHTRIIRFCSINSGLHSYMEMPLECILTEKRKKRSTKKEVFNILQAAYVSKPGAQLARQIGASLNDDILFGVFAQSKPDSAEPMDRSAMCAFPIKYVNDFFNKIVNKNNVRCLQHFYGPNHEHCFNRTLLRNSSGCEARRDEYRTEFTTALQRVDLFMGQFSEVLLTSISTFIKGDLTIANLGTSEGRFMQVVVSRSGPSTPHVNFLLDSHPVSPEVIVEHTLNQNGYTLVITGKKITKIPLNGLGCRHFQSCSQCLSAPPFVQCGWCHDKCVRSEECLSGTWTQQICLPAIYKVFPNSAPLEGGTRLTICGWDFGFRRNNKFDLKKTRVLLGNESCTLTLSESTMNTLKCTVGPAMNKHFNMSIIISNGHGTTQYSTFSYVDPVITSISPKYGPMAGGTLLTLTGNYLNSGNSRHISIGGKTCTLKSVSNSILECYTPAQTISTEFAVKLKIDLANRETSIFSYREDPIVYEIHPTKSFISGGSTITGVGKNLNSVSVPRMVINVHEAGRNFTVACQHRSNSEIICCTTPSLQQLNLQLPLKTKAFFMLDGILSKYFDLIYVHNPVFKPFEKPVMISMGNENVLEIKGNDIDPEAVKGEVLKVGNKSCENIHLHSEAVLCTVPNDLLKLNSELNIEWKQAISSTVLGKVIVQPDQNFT

The first assay has as its target T1, human c-Met protein antigen (human, UniProt P08581 25-932, limits assumed).
T1 construct: also called c-Met antigen
Kind of assay: Biacore SPR, antibody immobilized on CM5 chip, human c-Met protein injected.
Consider B1, for which the dissociation constant (Kd) was determined as 4.27 nM.

For a further assay, the target named is T2, human c-Met/Fc fusion protein (R&D Systems) (human, UniProt P08581 25-932).
T2 construct: Bought reagent; also called c-Met/Fc chimera (R&D Systems Cat. No. 358-MT/CF); not shown: Fc part of the bought fusion
T2 sequence (P08581 25-932 limits assumed): as above
Nature of the assay: competition ELISA on coated c-Met/Fc; competitor biotinylated chAbF46 (0.1 ug/ml). The protocol:
The antigens were coated by overnight incubation at a temperature of 4° C. using Nunc Immuno MaxiSort 96 well flat bottom microtiter plate (Fisher Cat. No. DIS-971-030J) and 1.0 μg/ml and 100 μl/well of c-Met/Fc chimera (R&D Systems Cat. No. 358-MT/CF). chAbF46 and 20 humanized antibodies were diluted and at a concentration of 10 μg/ml to 0.078 μg/ml, they were mixed with biotinylated chAbF46 (0.1 μg/ml, final conc.), followed by incubation at a temperature of 37° C. for 2 hours. The amount of biotinylated chAbF46 antibody binding to the antigen was measured using streptavidin-HRP (Sigma cat. No S5512) and an OPD substrate (Sigma Cat. No. P9187), and IC50 data were calculated from the results and the data are shown in Table 1 below (all units in nM).
Turning to B2, the 50% inhibitory concentration (IC50) was found to be 4.5 nM. Still for that read-out and setting: then B3, with 1.28 nM; and B4, with 5.51 nM; and B5, with 3.53 nM. In turn, B6 gave an IC50 of 3.13 nM. On the same count and under the same terms, then B7, with 1.48 nM; and B8, with 2.4 nM.

B9: the IC50 amounted to 1.41 nM.

Consider B10, for which the IC50 turned out to be 2.3 nM. Still for that read-out and setting: then B11, with 1.46 nM; and B12, with 2.3 nM.

B13 gave a concentration for half-maximal inhibition (IC50) of 1.51 nM. On the same count and under the same terms, the result for B14 reads 1.69 nM; that for B15, 1.37 nM; that for B16, 1.57 nM. Same read-out and setting: then B17, with 1.81 nM; and B18, with 2.04 nM.

B19: the IC50 came to 1.49 nM. The same measure, in the same setting: the result for B20 reads 1.62 nM.

As to B21, the IC50 stood at 1.99 nM.
